The supplement of paper PMC10567573

B1: IMPA1 (parent)
chain: FIGEESVAAGEKSILTDNPTWIID
B2: SMOC2 (parent)
chain: PALETQPQGDEEDIASRYPTLWTE

Variants of: B1
Test: protein stability index of a GFP-peptide fusion (GPS, HEK-293T) (PSI 1-6); higher = more stable
Conditions: c terminus: a fixed tail appended
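Further: lentivirally expressed fusions sorted by FACS into six bins by GFP to DsRed ratio, PSI derived from sequencing read proportions per bin multiplied by bin number.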

Protein stability index of substitutions, site by site:
I23: Q 3.39 | R 3.9 | S 2.27 | T 1.92 | V 2.02 | W 2.59 | Y 3.45
D24: A 1.71 | C 1.72 | E 2.03 | F 2.2 | G 2.44 | H 2.01 | I 1.16 | K 2.07 | L 2.05 | M 2.05 | N 1.66 | P 2.04 | Q 2.15 | R 1.59 | S 1.76 | T 1.7 | V 1.86 | W 2.06 | Y 2.33

Variants of: B2
Test: as above
Conditions: c terminus: a fixed tail appended

Protein stability index, by site and new letter:
D13: V 3.93 | K 2.67 | M 4.09 | C 3.9 | F 4.14 | G 3.85 | R 4.14 | N 4.23 | A 4.35 | Y 3.59 | E 3.76 | Q 4.21
S16: G 5.21 | D 4.76 | A 4.5 | W 3.99 | R 4.3 | N 4.56 | E 4.94 | C 4.63 | L 4.81 | Q 5.17 | F 4.61 | V 5.14 | I 4.52 | T 4.39
A15: V 3.87 | E 4.29 | C 4.1 | F 4.34 | D 4.33 | S 3.88 | Y 4.53 | N 4.36 | L 4.76 | Q 4.42 | G 4.63 | K 3.78 | W 4.14 | I 4.57
I14: G 4.53 | Q 4.4 | A 4.79 | E 4.79 | D 5.77 | K 3.96 | C 4.14 | H 4.65 | M 3.95 | V 4.19 | S 4.64 | F 4.42
E11: V 4.24 | Y 4.02 | W 3.96 | A 3.79 | Q 4.22 | I 3.36 | H 3.41 | G 4.04 | S 4.38 | T 4.18 | C 4.43 | M 3.59 | L 3.84 | F 3.95 | D 4.21
D10: P 4.6 | S 4.44 | Q 4.41 | E 4.16 | T 4.14 | H 3.56 | I 3.68 | N 4.49 | V 3.69 | C 3.36 | M 3.05 | L 4.33
E4: Q 4.9 | W 3.52 | A 4.42 | K 4.31 | N 4.31 | Y 2.74 | S 4.32 | M 3.95 | H 3.77 | F 3.64 | R 3.77 | C 3.96 | V 4.11 | L 4.22
P7: V 4.06 | E 4.67 | S 4.68 | L 4.6 | W 4.02 | Y 4.28 | D 4.67 | F 4.08 | T 4.54 | Q 5.02 | C 4.46 | H 4.29 | N 4.48 | R 3.81 | K 3.38 | I 5.37
G9: P 4.88 | H 4.71 | N 4.78 | T 4.97 | V 4.87 | Y 4.74 | D 4.63
T20: V 3.99 | A 4.31 | Y 4.1 | D 5.59 | H 4.87 | P 4.78 | F 4.6 | W 4.67 | L 4.66 | G 4.41 | Q 3.83 | M 4.4
Y18: R 4.53 | L 4.42 | W 4.6 | P 4.14 | M 4.59 | I 4.18 | S 4.65 | G 4.61 | E 4.74 | V 4.07 | T 4.67 | N 4.24 | C 4.32 | D 5.89 | F 4.25
P19: N 4.72 | L 4.87 | T 4.53 | Y 4.45 | H 4.18 | F 4.87 | M 4.32 | G 4.87 | R 4.2 | S 4.6 | Q 5.13 | V 5.11 | D 4.97
E12: M 3.7 | I 3.68 | C 4.12 | G 2.63 | Y 3.75 | S 4.46 | T 4.34 | P 4.33 | F 4.2 | R 3.93 | H 3.74 | W 3.39 | A 3.94
T23: I 4.28 | P 5.28 | E 5.39 | F 5.22 | L 5.29 | H 5.75 | K 4.58 | A 4.21 | M 5.08 | C 5.02
R17: H 4.38 | Y 3.69 | S 4.26 | C 3.2 | D 4.94 | K 4.35 | L 4.72 | A 4.81 | F 3.82 | M 4.94 | N 4.23
E24: F 4.17 | H 4.47 | W 4.17 | Y 4.41 | I 3.97 | T 4.65 | V 4.22 | D 4.68 | Q 4.82 | P 5.1 | A 4.67 | G 5.22 | L 4.19 | N 3.73
A2: Q 4.54 | D 5.13 | G 5.22 | W 3.88 | S 4.88 | L 5.17 | Y 4.61 | N 5.04 | F 4.53 | R 3.7 | I 4.07
L3: N 4.23 | F 4.85 | R 4.44 | I 5.31 | W 4.04 | M 4.83 | S 5.03 | G 4.33
Q8: H 4.96 | R 4.6 | F 4.48 | S 4.74 | A 4.88 | T 4.86 | E 5.1 | N 5.23 | D 5.29 | Y 3.89 | M 4.87 | I 5.02 | K 3.9 | W 4.16 | G 3.6 | L 4.05 | V 5.17 | P 4.33
T5: L 4.45 | W 4.51 | I 4.45 | Q 4.72 | N 4.54 | F 4.58 | P 4.58 | K 3.88 | C 4.61 | Y 4.65 | M 5.01
P1: K 4.04 | L 4 | N 4.08 | R 4.74 | V 4.24 | F 3.44 | W 3.84 | H 4.32 | C 3.24 | M 4.25 | T 4.58 | Y 3.1 | S 4.78 | Q 3.91 | A 4.26 | E 4.63 | I 4.09
Q6: L 4 | I 4.77 | M 4.13 | W 4.15 | K 4.26 | C 4.7 | R 4.34 | V 3.97 | H 4.73 | N 4.3 | P 4.55 | F 4.25 | A 4.44
L21: V 4.75 | A 5.65 | M 5.37 | D 5.72 | N 5.73 | P 5.64 | Q 5.66 | I 5.53 | R 4.91 | C 4.64 | K 5.12 | H 5.91
W22: G 4.47 | F 5.71 | D 5.62 | P 5.92 | K 5.3 | Y 4.73 | R 5.39 | M 5.49 | C 5.32 | I 5.58 | Q 5.51 | S 5.77 | V 5.9 | A 5.45
